# From PMC8446579
# Biological target: Candida parapsilosis ATCC 7330 imine reductase CpIM1 (Candida parapsilosis ATCC 7330)
# Test: SEC
substance,measurement,value
Candida parapsilosis ATCC 7330 imine reductase CpIM1 (enzyme),stoichiometry N,2
